# Key:
# [1] = test system: colitis induced by DSS; assay: acute inflammatory colitis model induced by DSS; type: in vivo, mice
# Protocol: FIG. 2. Effect of an anti-CMKLR1 antibody on a mice acute inflammatory colitis model induced by DSS. Mice were injected after 6 days of DSS induction with isotype control hIgG1 (10 μg per mouse) (x), RvE1 (1 μg per mouse) daily (●), or 2G1 antibody (10 μg per mouse) three times (□) for 5 days. Wild type mice, not treated, are represented by an ▾. A. Animal weight loss. B. Animal stool score C. Colon length. D. Resolution index.
# Colitis was induced in 8-10 weeks-old-C57Bl/6 male mice by adding 2% (wt/vol) of DSS to the sterile drinking ad libitum water for 6 days. Treatments were injected intra-peritoneally: Isotype control hIgG1 (10 μg per mouse), RvE1 (1 μg per mouse) daily, or 2G1 antibody (10 μg per mouse) three times for 5 days. Colitis follow-up consisting of body weight and stool score (0: normal stool; 4: blood in stool) parameters were performed daily. When mice were euthanized, colon length representing the pathology severity was measured. Resolution index was determined in the different conditions as described in Bannenberg et al., 2005.
# [2] = test system: colitis induced by TNBS; assay: acute inflammatory colitis model induced by TNBS; type: in vivo, mice; conditions: RvE1 1 μg per mouse daily, 2G1 10 μg per mouse; FIG. 3
# Protocol: FIG. 3. Effect of an anti-CMKLR1 antibody on a mice acute inflammatory colitis model induced by TNBS. Mice received 200 μL of the haptenating agent TNBS at 5% in 50% ethanol on day 0 and then were injected with isotype control hIgG1 (10 μg per mouse) (x), RvE1 (1 μg per mouse) daily (●), or 2G1 antibody (10 μg per mouse) three times (□) for 5 days, or non-treated (wild type animals) (▴). Mice were sacrificed colon length was measured in each condition.
# Colitis was induced in 8-10 weeks-old-C57Bl/6 male mice by intrarectal injection of 200 μL of the haptenating agent TNBS at 5% in 50% ethanol on day 0. Treatments were injected intra-peritoneally; RvE1 (1 μg per mouse) daily for three days, or 2G1 antibody (10 μg per mouse) twice for 3 days. Colitis follow-up consisting of body weight and stool score (0: normal stool; 4: blood in stool) parameters were performed daily (data not represented). When mice are euthanized, colon length representing the pathology severity was measured.
# [3] = test system: spontaneous colitis in IL-10KO mice; assay: IL10 KO spontaneous chronic inflammatory colitis model; type: in vivo; conditions: vs isotype control
# Protocol: FIG. 4. Effect of an anti-CMKLR1 antibody on a IL10 KO mice chronic inflammatory colitis model. Mice KO for IL10 develop a spontaneous inflammatory colitis. They were treated with an Anti-CMKLR1 antibody (2G1) (□) or isotype control (hIgG1) (x) intra-peritoneally (25 μg/injection, 3 times a week). A. Animal weight loss during and after treatment. B. Animal score stool.
# IL-10KO mice develop a spontaneous colitis from 20 weeks of age mostly due to the absence of regulatory T cells function through IL-10 secretion in the intestine. IL-10KO mice were followed-up three times a week from 18-week old for their weight loss and stool consistency which are clinical hallmarks of this pathology.
# [4] = test system: spontaneous type 1 diabetes in NOD mice; assay: type 1 diabetes NOD model; type: in vivo; conditions: 20 μg/injection i.p. three times a week for 2 weeks
# Source text: FIG. 5. Effect of an anti-CMKLR1 antibody on a mice type1 non-obese diabetes model. Mice develop spontaneous diabetes. […] A. Percentage of survival, B. individual representation of blood glucose concentration in mg/dL. C. pooled representation of blood glucose concentration in mg/dL.
# 8 weeks-old NOD female mice were obtained from Charles River laboratory. These mice develop a spontaneous type 1 diabetes at age between 12 to 20 weeks. The diabetes initiation can be measured by the high glycaemia.
# [5] = test system: chronic colitis after CD45Rbhigh CD4 T cell transfer in Rag1 knock-out mice; assay: CD45Rb high T-cell transfer chronic colitis model; type: in vivo
# Protocol: FIG. 19. Effect of an anti-CMKLR1 antibody in the CD45Rb^high T-cell transfer chronic colitis mouse model. A. Weight variation of treated animals was followed up to sixty days. Animals were treated with isotype control hIgG1 (x) or anti-CMKLR1 antibody (n). B. Histological staining of colon tissue in the mice treated with the anti-CMKLR1 (right) compared to control (left). C. Anatomic pathology scores used to calculate the severity of the pathology and the inflammation (inflammation score, vasculutis score, colon thickness and fibrotic colon wall). D. CD3 and Ly6G infiltration.
# Method: CD45Rb^high CD4 T cells were isolated from the spleen of naive mice and sorted on an ARIA FACS after a negative selection of the CD4 T cells by magnetic sorting, then injected intraperitoneally at 0.5·10^6 cells in 100 μL of PBS into 6-weeks old female Rag1 knock-out mice. Anti-CMKLR1 antibody (2G1) or an isotype control were administered from day 32 after the CD45Rb^high CD4 T cell transfer for 3 weeks three times a week at 1 mg/kg. The follow-up of weight was evaluated three times a week and the weight variation was determined over the initial weight. * p<0.05, ** p<0.01.
# [6] = test system: MC38 CRC cell line; assay: CRC model, tumor cell inoculated (MC38 subcutaneously); type: in vivo, mice; conditions: FIG. 31A
# Protocol: Tumor inoculation was performed with 0.5M of MC38 CRC cell line subcutaneously. Mice were injected three times a week with 1 mg/kg of 2G1 or Ctrl Ab for 3 weeks starting at d4 after tumor induction. Cyclophosphamide was injected I.P. once at 100 mg/kg. Tumor development was assessed three times a week and survival curves were established when mice developed a tumor >1000 mm3.
molecule,measurement,setting,value
"2G1: parental chimeric anti-CMKLR1 antibody: heavy chain variable domain SEQ ID No. 37, light chain variable domain SEQ ID No. 49 (antibody, V domains shown) VH: EVQLVASGGGLVQPGGSLKLSCAASGFTFSSYGMSWVRQTPDRRLELVATINRYGGSTYYPDSVKGRFTISRDNAKNTLYLQMSSLKSEDTAMYYCPRLIYYGNEGDSWGQGTTLTVSS VL: QIVLTQSPAIMSASPGEKVTMTCSASSSVSFMHWYQQKSGTSPKRWIYDTTKLTSGVPARFSGSGSGTFYSLTISSMEAEDAATYYCQQWNSKPPLTFGPGTKLELKR",stool score,"[1]; 0: normal stool, 4: blood in stool, FIG. 2B",significantly better
same,Animal weight loss,"[1]; 10 μg per mouse i.p. three times for 5 days, vs control antibody or RvE1, FIG. 2A",lost significantly less weight
same,colon length,[2],the same as normal animal
same,percentage of weight loss,"[3]; 25 μg/injection i.p., 3 times a week for 2 weeks, FIG. 4A",lost less weight
same,score stool,[3]; FIG. 4B,better score stool
same,Percentage of survival,[4]; FIG. 5A,better survival percentage
same,glycaemia (blood glucose concentration),[4]; FIG. 5B-C,almost normal glycaemia
same,Weight variation,"[5]; 1 mg/kg three times a week for 3 weeks from day 32, vs isotype control, FIG. 19A",continue to gain weight
same,"anatomic pathology scores, comprising inflammation scores",[5]; FIG. 19C,lower
same,colon tissue thickness,"[5]; histology, FIG. 19B",decrease of tissue thickness
same,fibrotic tissue,"[5]; histology, FIG. 19B",decrease of fibrotic tissue
same,tumor volume,"[6]; 1 mg/kg three times a week for 3 weeks starting at d4, vs control antibody",reduced
same,remission,[6]; in several cases,complete remission
